These results are taken from patent publication US20190225662A1.

For this assay, the target named is GABABR1a on mouse hippocampal neurons (cultures and slices) (mouse), Q9WV18. As to the kind of experiment: cell-based or functional assay.
Chain of GABABR1a on mouse hippocampal neurons (cultures and slices) (mouse), Q9WV18 (Q9WV18 20-960): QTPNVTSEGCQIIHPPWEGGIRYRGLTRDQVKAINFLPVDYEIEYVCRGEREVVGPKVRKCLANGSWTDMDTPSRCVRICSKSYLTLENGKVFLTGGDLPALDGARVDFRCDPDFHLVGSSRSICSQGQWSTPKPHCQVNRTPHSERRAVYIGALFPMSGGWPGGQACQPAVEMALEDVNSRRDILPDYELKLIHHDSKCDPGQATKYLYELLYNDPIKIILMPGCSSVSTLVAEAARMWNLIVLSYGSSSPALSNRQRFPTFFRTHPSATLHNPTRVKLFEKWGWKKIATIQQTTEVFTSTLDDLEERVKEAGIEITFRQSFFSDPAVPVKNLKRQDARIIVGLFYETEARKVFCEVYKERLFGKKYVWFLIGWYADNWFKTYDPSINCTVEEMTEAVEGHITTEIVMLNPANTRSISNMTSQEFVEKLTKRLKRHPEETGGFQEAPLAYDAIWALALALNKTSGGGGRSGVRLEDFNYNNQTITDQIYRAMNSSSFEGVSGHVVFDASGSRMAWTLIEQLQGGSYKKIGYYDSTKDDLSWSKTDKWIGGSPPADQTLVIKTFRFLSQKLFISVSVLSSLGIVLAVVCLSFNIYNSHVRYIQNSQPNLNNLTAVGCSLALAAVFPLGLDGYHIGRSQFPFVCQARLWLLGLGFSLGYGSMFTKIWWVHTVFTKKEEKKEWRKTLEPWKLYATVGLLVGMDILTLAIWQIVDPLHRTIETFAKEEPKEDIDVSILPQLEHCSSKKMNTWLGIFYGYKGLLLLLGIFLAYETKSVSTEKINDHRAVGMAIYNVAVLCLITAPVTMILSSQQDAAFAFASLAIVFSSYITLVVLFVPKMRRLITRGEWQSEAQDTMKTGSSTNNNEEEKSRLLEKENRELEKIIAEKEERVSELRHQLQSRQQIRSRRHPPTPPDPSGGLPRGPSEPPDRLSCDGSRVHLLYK

B1: sAPPα (Fc cleaved), P12023 18-687 (ligand)
chain: LEVPTDGNAGLLAEPQIAMFCGKLNMHMNVQNGKWESDPSGTKTCIGTKEGILQYCQEVYPELQITNVVEANQPVTIQNWCKRGRKQCKTHTHIVIPYRCLVGEFVSDALLVPDKCKFLHQERMDVCETHLHWHTVAKETCSEKSTNLHDYGMLLPCGIDKFRGVEFVCCPLAEESDSVDSADAEEDDSDVWWGGADTDYADGGEDKVVEVAEEEEVADVEEEEADDDEDVEDGDEVEEEAEEPYEEATERTTSTATTTTTTTESVEEVVRVPTTAASTPDAVDKYLETPGDENEHAHFQKAKERLEAKHRERMSQVMREWEEAERQAKNLPKADKKAVIQHFQEKVESLEQEAANERQQLVETHMARVEAMLNDRRRLALENYITALQAVPPRPHHVFNMLKKYVRAEQKDRQHTLKHFEHVRMVDPKKAAQIRSQVMTHLRVIYERMNQSLSLLYNVPAVAEEIQDEVDELLQKEQNYSDDVLANMISEPRISYGNDALMPSLTETKTTVELLPVNGEFSLDDLQPWHPFGVDSVPANTENEVEPVDARPAADRGLTTRPGSGLTNIKTEEISEVKMDAEFGHDSGFEVRHQK
In turn, B1 came in with a reduction of the frequency of miniature excitatory postsynaptic currents (mEPSCs), 250 nM sAPPα, primary hippocampal neurons of 39%; a reduction of the frequency of miniature inhibitory postsynaptic currents (mIPSCs), 250 nM sAPPα, primary hippocampal neurons of 44%; a reduction of total presynaptic strength (S=ΔF×D), FM1-43 synaptic vesicle recycling, cultured hippocampal neurons of 57%; a reduction on mIPSC amplitude of 14%.
